From patent US20250382376A1 (FUDAN UNIVERSITY, published 2025)
Where a chain is given by its changes, count along the chain named.

T1: CD73 on the surface of human cells (human, UniProt P21589 27-549)
T1 sequence (looked up): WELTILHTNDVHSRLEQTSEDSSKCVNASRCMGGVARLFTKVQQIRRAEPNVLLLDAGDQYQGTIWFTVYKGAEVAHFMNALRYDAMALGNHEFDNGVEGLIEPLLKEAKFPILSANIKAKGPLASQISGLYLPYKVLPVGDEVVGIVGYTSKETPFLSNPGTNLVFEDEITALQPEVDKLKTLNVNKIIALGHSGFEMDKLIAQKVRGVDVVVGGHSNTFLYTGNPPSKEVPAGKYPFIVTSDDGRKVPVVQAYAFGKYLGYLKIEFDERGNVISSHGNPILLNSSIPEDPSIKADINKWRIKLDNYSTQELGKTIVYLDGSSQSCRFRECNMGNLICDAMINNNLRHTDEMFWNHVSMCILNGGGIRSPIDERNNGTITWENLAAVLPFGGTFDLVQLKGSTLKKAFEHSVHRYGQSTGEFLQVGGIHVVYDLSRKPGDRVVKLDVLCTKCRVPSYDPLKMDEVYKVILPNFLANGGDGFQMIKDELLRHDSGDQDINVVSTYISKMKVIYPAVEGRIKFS

T2: extracellular domain of human CD73 protein, C-terminus polyhistidine-tagged (human, UniProt P21589 27-547)
T2 construct: also the immunogen; also called CD73-ECD; human CD73-ECD
T2 sequence: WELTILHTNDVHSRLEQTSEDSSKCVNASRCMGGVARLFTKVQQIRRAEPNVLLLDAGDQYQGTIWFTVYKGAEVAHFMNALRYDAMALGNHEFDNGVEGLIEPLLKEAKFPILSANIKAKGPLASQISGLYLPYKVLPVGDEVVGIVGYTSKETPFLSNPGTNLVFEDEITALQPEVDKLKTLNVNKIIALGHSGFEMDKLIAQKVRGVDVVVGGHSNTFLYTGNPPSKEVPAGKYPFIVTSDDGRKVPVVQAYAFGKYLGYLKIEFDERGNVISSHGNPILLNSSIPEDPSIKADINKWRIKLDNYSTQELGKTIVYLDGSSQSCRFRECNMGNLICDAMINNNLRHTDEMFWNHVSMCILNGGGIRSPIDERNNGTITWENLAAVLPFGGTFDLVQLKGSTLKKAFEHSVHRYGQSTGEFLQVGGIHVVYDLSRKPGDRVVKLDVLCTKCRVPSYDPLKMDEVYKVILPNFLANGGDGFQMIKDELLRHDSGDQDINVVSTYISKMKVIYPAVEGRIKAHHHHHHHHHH

B1: humanized nanobody-drug conjugate 3D7-HM9-FC1-MMAE (Fc fusion, part only; not given: Fc segment and drug payload, part only)
VHH, part: QRQLVESGGGLVQPGGSLRLSCAASGFLLDYYVIGWFRQAPGKEREGVSCISGSDRSTYYADSVKGRFTISRDNAKNTVYLQMSSLRAEDTAVYYCAADPSPVTVQAMCLPRFPVPYWGKGTLVTVSS
modifications: vc-MMAE on cysteines; expected DAR 4 for the dimer
B2: humanized antibody fusion protein 3D7-HM9-ABD (VHH)
VHH: B1 VHH, part
B3: chimeric nanobody 3-A3 (Fc fusion)
VHH: QVQLVESGGGSVQPGGSLRLSCAASGFPLDYYTIGWFRQAPGKELEGVSCISSSDSSPYDADSVKGRFTMSRDNANNTVYLQMNSLKPEDTAVYYCAAQRYYYCSLRANVYDYWGQGTQVTVSS
notes: Tested as supernatant of transiently transfected HEK293F cells
B4: chimeric nanobody 3-F1 (Fc fusion)
VHH: B3 VHH with G9V, G10S, S11L, P28T, V48I, S52R, G66D, V93D, R107T
notes: as for B3
B5: chimeric nanobody 2-G9 (Fc fusion)
VHH: B3 VHH with V2L, S11L, P28L, S105A, S124T
notes: as for B3
B6: chimeric nanobody 2-B10 (Fc fusion)
VHH: QLQLVESGGGLVQPGGSLRLSCAASGFTLDDNAIGWFRQAPGKEREGVACMRTSDGDTYYADSVKGRFTISRDNAKNTMYLQMNSLKPEDTAVYYCAAALGTYYSGFYYLAGDGMDYWGKGTLVTVSS
notes: as for B3
B7: chimeric nanobody 1-E7 (Fc fusion)
VHH: QVQLVESGGGLVQPGGSLRLSCAASGFTLDYYNIGWFRQAPGKEREGVSCISNSDGSTYYADSVKGRFTISRDNAKNTVYLQMNSLKPEDTAVYYCAAYRGWHPSLDARVYDYWGQGTQVTVSS
notes: as for B3
B8: 5-E11 derived antibody 5-E11AS (VHH, not shown: a dimerising Fc or GST)
VHH: B7 VHH with Q1A, V2L, A23E, A24V, I51S, N53A, D55G, A92G, Q119E
B9: 5-E11 derived antibody 5-E11QS (VHH, not shown: a dimerising Fc or GST)
VHH: B7 VHH with Q1A, V2L, A23E, A24V, I51S, N53Q, D55G, A92G, Q119E
B10: 5-E11 derived antibody 5-E11GS (VHH, not shown: a dimerising Fc or GST)
VHH: B7 VHH with Q1A, V2L, A23E, A24V, I51S, N53G, D55G, A92G, Q119E

These binders were tested against T1, CD73 on the surface of human cells (assay: cell-based or functional assay).

Binder	EC50, reversal of the AMP inhibition of human T lymphocyte proliferation [µg/mL]	IC50, inhibition of the catalytic function of CD73 enzyme on MDA-MB-231 cells [µg/mL]
B1	0.0197	
B2	0.0467	0.123

What follows are binders tested against T2, extracellular domain of human CD73 … (assay: ELISA on human CD73-ECD, 1 µL supernatant of transfected HEK293F cells; PBS blank 0.073).
Experimental: (§1) The CD73 protein extracellular region (CD73-ECD) was diluted to 1 μg/mL using the coating solution, and an ELISA plate was coated at 100 μL/well at 4° C. overnight. Excess antigens were washed away, and the plate was blocked with 1% BSA at room temperature for 2 hours. Then, 5-fold gradient dilutions of each monoclonal antibody were added at 100 μL/well and incubated at room temperature for 1 hour. Unbound antibodies were washed away, and an appropriate concentration of Staphylococcal protein A labeled with horseradish peroxidase was added at 100 μL/well and incubated at room temperature for 0.5 hours. Unbound secondary antibodies were washed away, and TMB color development solution was added to react for about 15 minutes. 1M HCL was added at 50 µL/well to terminate the color development reaction, and then the absorbance was measured at 450 nm and the data was analyzed.
(§2) For the five antibodies from yeast, after transient expression in HEK293F cells, the supernatant was collected after 2 days of continuous culture and ELISA assay was performed using 100 μL, 10 μL, and 1 μL of the supernatant.

Binder	ELISA (OD450)
B3	0.605
B4	0.143
B5	0.924
B6	0.254
B7	0.36

These binders were tested against T2, extracellular domain of human CD73 … (assay: ELISA on human CD73-ECD, 10 µL supernatant of transfected HEK293F cells; PBS blank 0.0615).
Experimental: as §1, §2

Binder	ELISA (OD450)
B3	2.11
B4	1.11
B5	3.35
B6	1.28
B7	1.61

These binders were tested against T2, extracellular domain of human CD73 … (assay: ELISA on CD73-ECD, 4 µL supernatant of antibody expression, first of two readings; PBS 0.19, 0.18).
Experimental: as §1
(§3) CD73 antigen ELISA binding affinity test was performed according to the method of Example 3.

Binder	ELISA reading (not named on the sheet)
B8	4.25
B9	4.23
B10	4.22

Each binder was assayed against T2, extracellular domain of human CD73 … (assay: ELISA on human CD73-ECD, 100 µL supernatant of transfected HEK293F cells; PBS blank 0.0675).
Experimental: as §1, §2

Binder	ELISA (OD450)
B3	4.27
B4	3.01
B5	4.41
B6	4.46
B7	4.11

These binders were tested against T2, extracellular domain of human CD73 … (assay: ELISA on CD73-ECD, 20 µL supernatant of antibody expression, first of two readings; PBS 0.19, 0.18).
Experimental: as §1, §3

Binder	ELISA reading (not named on the sheet)
B8	4.24
B9	4.17
B10	4.15

Each binder was assayed against T2, extracellular domain of human CD73 … (assay: ELISA on CD73-ECD, 0.8 µL supernatant of antibody expression, first of two readings; PBS 0.19, 0.18).
Experimental: as §1, §3

Binder	ELISA reading (not named on the sheet)
B8	4.22
B9	4.17
B10	4.16

These binders were tested against T2, extracellular domain of human CD73 … (assay: ELISA on CD73-ECD, 20 µL supernatant of antibody expression, second of two readings; PBS 0.19, 0.18).
Experimental: as §1, §3

Binder	ELISA reading (not named on the sheet)
B8	4.33
B9	4.29
B10	4.3

Each binder was assayed against T2, extracellular domain of human CD73 … (assay: ELISA on CD73-ECD, 4 µL supernatant of antibody expression, second of two readings; PBS 0.19, 0.18).

Binder	ELISA reading (not named on the sheet)
B8	4.22
B9	4.16
B10	4.17

The binders below were run against T2, extracellular domain of human CD73 … (assay: ELISA on CD73-ECD, 0.8 µL supernatant of antibody expression, second of two readings; PBS 0.19, 0.18).
Experimental: as §1, §3

Binder	ELISA reading (not named on the sheet)
B8	4.08
B9	4.08
B10	4.11

Each binder was assayed against T2, extracellular domain of human CD73 … (assay: ELISA on CD73-ECD, 100 µL supernatant of antibody expression, first of two readings; PBS 0.19, 0.18).
Experimental: as §1, §3

Binder	ELISA reading (not named on the sheet)
B8	4.28
B9	4.32
B10	4.24

The binders below were run against T2, extracellular domain of human CD73 … (assay: ELISA on CD73-ECD, 100 µL supernatant of antibody expression, second of two readings; PBS 0.19, 0.18).

Binder	ELISA reading (not named on the sheet)
B8	4.27
B9	4.28
B10	4.22
